The values that follow come from patent publication US20100150950A1, “HUMAN ANTIBODIES THAT BIND CD70 AND USES THEREOF” (Medarex, Inc., priority 2006, published 2010).

Data set [1] deals with T1, CD70 on Raji cells (Homo sapiens, UniProt P32970).
T1 construct: endogenous in cells; host or cells: Daudi (ATCC CCL-213), HuT 78 (TIB-161), Raji (CCL-86), Granta 519 (DSMZ 342)
T1 sequence (P32970 1-193): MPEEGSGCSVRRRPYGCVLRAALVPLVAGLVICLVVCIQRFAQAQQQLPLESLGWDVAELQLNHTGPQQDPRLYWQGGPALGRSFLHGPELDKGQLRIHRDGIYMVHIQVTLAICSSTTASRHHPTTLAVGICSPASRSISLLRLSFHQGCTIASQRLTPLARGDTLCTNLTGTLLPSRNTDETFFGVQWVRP
The experiment in a line: Competition FACS assay with FITC-conjugated 69A7 on Raji cells. It is filed as binding. The note with it: naked antibody 10 μg/ml, then FITC-conjugated 69A7 10 μg/ml. The procedure:
A competition FACS assay was carried out to elucidate the binding specificity of 69A7 against 2H5. Raji cells were incubated with either naked 69A7, 2H5, an isotype control antibody or no antibody at a concentration of 10 μg/ml. After wash, the cells were incubated with FITC-conjugated 69A7 at a concentration of 10 μg/ml. The cells were washed and binding was detected with a FITC-labeled anti-human IgG Ab. Flow cytometric analyses were performed using a FACSCalibur flow cytometry (Becton Dickinson, San Jose, Calif.).
(In flow cytometry, cells or beads pass a laser one at a time.)

Data set [2] relates to HuT 78 cells. Description: ADCC fluorescence cytotoxicity assay, HuT 78. It is filed as cell-based, human. The note with it: target to effector ratio 1:50. As to the method: In this example, anti-CD70 monoclonal antibodies were tested for the ability to kill CD70+ cell lines in the presence of effector cells via antibody dependent cellular cytotoxicity (ADCC) in a fluorescence cytotoxicity assay.
Human effector cells were prepared from whole blood as follows. Human peripheral blood mononuclear cells were purified from heparinized whole blood by standard Ficoll-paque separation. The cells were resuspended in RPMI1640 media containing 10% FBS and 200 U/ml of human IL-2 and incubated overnight at 37° C. The following day, the cells were collected and washed four times in culture media and resuspended at 2×10^7 cells/ml. […]
The CD70+ cell lines ARH-77 (human B lymphoblast leukemia; ATCC Accession No. CRL-1621), HuT 78 (human cutaneous lymphocyte lymphoma; ATCC Accession No. TIB-161), Raji (human B lymphocyte Burkitt's lymphoma; ATCC Accession No. CCL-86) and a negative control cell line L540 (human Hodgkin's lymphoma; DSMZ Deposit No. ACC 72) were tested for antibody specific ADCC to the human anti-CD70 monoclonal antibodies using the Delfia fluorescence emission analysis as follows. […]
In this example, a defucosylated and non-defucosylated anti-CD70 monoclonal antibody was tested for the ability to kill CD70+cells in the presence of effector cells via antibody dependent cellular cytotoxicity (ADCC) in a fluorescence cytotoxicity assay […]

In data set [3] the test system is activated T cells. Description: ADCC fluorescence cytotoxicity assay, activated T cells. It is filed as cell-based, human. As to the method:
In this example, a defucosylated and non-defucosylated anti-CD70 monoclonal antibody was tested for the ability to kill activated T cells in the presence of effector cells via antibody dependent cellular cytotoxicity (ADCC) in a fluorescence cytotoxicity assay.
Human Anti-CD70 monoclonal antibody 2H5 was defucosylated as described above. Human effector cells were prepared as described above. Human spleen T cells were positively selected with anti-CD3 coated magnetic beads (Purity>90%). The cells were stimulated with anti-CD3 and anti-CD28 coated beads and 25 ng/ml IL-2 in Iscove's media+10% heat inactivated FCS for 6 days. Cells were collected and assayed for viability by propidium iodide incorporation (60% viable) and live cells were gated and analyzed for CD70 expression (˜65% CD70+ on live cells) prior to inclusion in ADCC assays.
The activated T cells were tested for antibody specific ADCC to the defucosylated and non-defucosylated human anti-CD70 monoclonal antibody 2H5 using the Delfia fluorescence emission analysis as follows. […] Following a 2100 rpm pulse spin and one hour incubation at 37° C., the supernatants were collected, quick spun again and 20 μl of supernatant was transferred to a flat bottom plate, to which 180 μl of Eu solution (Perkin Elmer, Wellesley, Mass.) was added and read in a Fusion Alpha TRF plate reader (Perkin Elmer). […]

Where a chain is given by its changes, count along the chain named.

B1: anti-CD70 human monoclonal antibody 69A7 (antibody, V domains shown)
VH: QVQLQESGPGLVKPSETLSLTCTVSGGSVSSDYYYWSWIRQPPGKGLEWLGYIYYSGSTNYNPSLKSRVTISVDTSKNQFSLKLRSVTTADTAVYYCARGDGDYGGNCFDYWGQGTLVTVSS
VL: EIVLTQSPATLSLSPGERATLSCRASQSVSSYLAWYQQKPGQAPRLLIFDASNRATGIPARFSGSGSGTDFTLTISSLEPEDFAVYYCQQRSNWPLTFGGGTKVEIK
notes: Human IgG from hybridoma; also called HuMAb 69A7; FITC-conjugated 69A7
B1: the “blocking of FITC-labeled 69A7 binding” value in data set [1] is recorded as “blocked binding”.

B2: 2H5 NF: 2H5 HuMAb lacking fucosyl residues, expressed in CHO cell line Ms704-PF (antibody, V domains shown)
VH: QVQLVESGGGVVQPGRSLRLSCAASGFTFSSYIMHWVRQAPGKGLEWVAVISYDGRNKYYADSVKGRFTISRDNSKNTLYLQMNSLRAEDTAVYYCARDTDGYDFDYWGQGTLVTVSS
VL: B1 VL with F49Y, S92T
Regarding B2, the “ADCC, % lysis of HuT 78” value in data set [2] was “increased percentage of specific lysis”. Moreover, the “antibody mediated cytotoxicity with addition of anti-CD16 antibody” value in data set [3] (activated T cells) is reported as “blocked”. Besides, the “ADCC, % specific lysis of activated T cells” value in data set [3] (target to effector ratio 1:50) is “increased percentage of specific lysis”.
